Assay results as given in the supplement of paper PMC10724198.
± gives the standard deviation of the averaged measurements.

The sequences below were run on Saccharomyces cerevisiae (assay: protein stability index of tFT-peptide fusion (C-terminal peptide) (PSI (0-1 scale)); higher = more stable (slower turnover)). Conditions: genetic background: wild type; temperature: 30 C.
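Note: PSI is a weighted mean of sequencing reads over stability bins, variants kept only with over 10 reads, mCherry proximal and sfGFP distal, peptide attached via GGGS linker.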

Sequence | protein stability index
FSAVVCPTVFLC | 0.185 ± 0.063
FSCWLFMLCVFL | 0.393 ± 0.025
FSIFFFLLPSSL | 0.464 ± 0.042
FSLFYYIHLSVA | 0.192 ± 0.019
FSLGGVPYVFFV | 0.37 ± 0.019
FSLWSRRSITVY | 0.198 ± 0.057
FSPSHMLRIFCY | 0.294 ± 0.055
FSRPTYYFIRHS | 0.403 ± 0.029
FSSRVFLIVGIY | 0.427 ± 0.025
FVCFSFFFPFLL | 0.237 ± 0.057
FVFCTCSFFFLW | 0.477 ± 0.0076
FVSGRFLFFFVL | 0.204 ± 0.04
FVSSLLPLLTLL | 0.293 ± 0.033
FVVVGVLFLCVG | 0.367 ± 0.025
FWFSFSFLCHSY | 0.422 ± 0.016
FYFLSFLLLLSP | 0.176 ± 0.012
FYGVRFLVCVSA | 0.1575 ± 0.0005
GAWLAVCVVREG | 0.479 ± 0.022
GCILSLCYAVST | 0.389 ± 0.016
GCVTFVLISFCA | 0.358 ± 0.016

Sequence | protein stability index
GELVLVMYGIWV | 0.351 ± 0.058
GFESTCSLLCVF | 0.43 ± 0.029
GFFFFHGLCFFV | 0.43 ± 0.047
GFFFWTMCFWVV | 0.284 ± 0.046
GFLVPSSPRCHQ | 0.727 ± 0.0082
GFSPLFVLVFGV | 0.4261 ± 0.0035
GGGSASGWRAAA | 0.48 ± 0.025
GGKTLSIFLRIS | 0.258 ± 0.0057
GGLVVYVWGRWS | 0.457 ± 0.024
GGLWRRLCLGVG | 0.329 ± 0.041
GGVCVRMECWMG | 0.496 ± 0.0059
GGVVGRPWWYVG | 0.425 ± 0.031
GIFVRIVCIDVA | 0.2651 ± 0.0024
GINYSNKKILVN | 0.444 ± 0.059
GLCSGTGARWLV | 0.559 ± 0.086
GLPRASPLPIPV | 0.517 ± 0.048
GLRLRCPLLLSL | 0.383 ± 0.028
GLSGFLLLIVLY | 0.353 ± 0.026
GLWLCRGLVRAW | 0.43 ± 0.04
GPFGVGALVCCM | 0.433 ± 0.0072

Sequence | protein stability index
GPNWCSVCQGVG | 0.453 ± 0.015
GPPPAPSPTPSP | 0.732 ± 0.023
GPTLLVSRIAVI | 0.249 ± 0.011
GQLIYQHIFILG | 0.4678 ± 0.00024
GRPYHLCLFSCF | 0.353 ± 0.021
GRRLGLLNLLSY | 0.456 ± 0.064
GRSVGVTMFKNG | 0.3421 ± 0.0014
GRWLYSACVALN | 0.395 ± 0.017
GSRVICMVVATM | 0.488 ± 0.022
GTRREFVILYLF | 0.191 ± 0.0076
GVFISFFFVFRF | 0.308 ± 0.013
GVFRYKLILRKM | 0.337 ± 0.05
GVLHSKGPWFSG | 0.729 ± 0.017
GVLLLGSYQWVG | 0.313 ± 0.007
GVWLRAVRGFGV | 0.738 ± 0.04
GWCLGFWCLLVC | 0.118 ± 0.093
GWVVWLTGCLVF | 0.4592 ± 0.0025
GYRGRITRLVNG | 0.29 ± 0.035
GYRYMWLWRLSA | 0.178 ± 0.095
HCLGWCFSRLSS | 0.289 ± 0.012

The sequences below were run on Saccharomyces cerevisiae in the same assay as above. Conditions: genetic background: cdc34-1; temperature: 37 C.
Method: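 MPS profiling in S. cerevisiae of the tFT-X12 degron library: putative degron peptides plus stable controls, 12 aa, fused to the C-terminus of a sfGFP-mCherry timer. Cells are FACS-sorted into 8 mCherry/sfGFP bins and deep-sequenced. PSI runs from 0 (unstable) to 1 (stable). Backgrounds are wild type, das1Δ and doa10Δ at 30 °C, and wild type, das1Δ, cdc34-1 and cdc53-1 at 37 °C; 2-3 technical replicates each.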

Sequence | protein stability index
FSAVVCPTVFLC | 0.51 ± 0.051
FSCWLFMLCVFL | 0.4339 ± 0.0012
FSIFFFLLPSSL | 0.539 ± 0.03
FSLFYYIHLSVA | 0.191 ± 0.002
FSLGGVPYVFFV | 0.628 ± 0.05
FSLWSRRSITVY | 0.04947 ± 0.00046
FSPSHMLRIFCY | 0.337 ± 0.089
FSRPTYYFIRHS | 0.629 ± 0.048
FSSRVFLIVGIY | 0.45 ± 0.015
FVCFSFFFPFLL | 0.401 ± 0.0099
FVFCTCSFFFLW | 0.5113 ± 0.0046
FVSGRFLFFFVL | 0.52 ± 0.029
FVSSLLPLLTLL | 0.555 ± 0.032
FVVVGVLFLCVG | 0.256 ± 0.0023
FWFSFSFLCHSY | 0.384 ± 0.022
FYFLSFLLLLSP | 0.143 ± 0.0096
FYGVRFLVCVSA | 0.0202 ± 0.0026
GAWLAVCVVREG | 0.493 ± 0.04
GCILSLCYAVST | 0.555 ± 0.051
GCVTFVLISFCA | 0.238 ± 0.007

Sequence | protein stability index
GELVLVMYGIWV | 0.392 ± 0.013
GFESTCSLLCVF | 0.33 ± 0.026
GFFFFHGLCFFV | 0.448 ± 0.017
GFFFWTMCFWVV | 0.255 ± 0.01
GFLVPSSPRCHQ | 0.708 ± 0.018
GFSPLFVLVFGV | 0.47 ± 0.012
GGGSASGWRAAA | 0.665 ± 0.0097
GGKTLSIFLRIS | 0.611 ± 0.029
GGLVVYVWGRWS | 0.526 ± 0.017
GGLWRRLCLGVG | 0.4 ± 0.021
GGVCVRMECWMG | 0.57 ± 0.036
GGVVGRPWWYVG | 0.694 ± 0.023
GIFVRIVCIDVA | 0.125 ± 0.0095
GINYSNKKILVN | 0.574 ± 0.016
GLCSGTGARWLV | 0.703 ± 0.0096
GLPRASPLPIPV | 0.553 ± 0.032
GLRLRCPLLLSL | 0.354 ± 0.018
GLSGFLLLIVLY | 0.194 ± 0.027
GLWLCRGLVRAW | 0.349 ± 0.026
GPFGVGALVCCM | 0.462 ± 0.016

Sequence | protein stability index
GPNWCSVCQGVG | 0.421 ± 0.03
GPPPAPSPTPSP | 0.661 ± 0.035
GPTLLVSRIAVI | 0.506 ± 0.026
GQLIYQHIFILG | 0.662 ± 0.063
GRPYHLCLFSCF | 0.646 ± 0.018
GRRLGLLNLLSY | 0.649 ± 0.029
GRSVGVTMFKNG | 0.614 ± 0.059
GRWLYSACVALN | 0.62 ± 0.072
GSRVICMVVATM | 0.546 ± 0.044
GTRREFVILYLF | 0.544 ± 0.026
GVFISFFFVFRF | 0.154 ± 0.0055
GVFRYKLILRKM | 0.527 ± 0.056
GVLHSKGPWFSG | 0.703 ± 0.028
GVLLLGSYQWVG | 0.306 ± 0.031
GVWLRAVRGFGV | 0.706 ± 0.03
GWCLGFWCLLVC | 0.0399 ± 0.0089
GWVVWLTGCLVF | 0.512 ± 0.028
GYRGRITRLVNG | 0.661 ± 0.03
GYRYMWLWRLSA | 0.544 ± 0.027
HCLGWCFSRLSS | 0.654 ± 0.043
